Legend:
[1] = biological target: Vibrio cholerae ParE2 (VcParE2), wild type, C-terminally histidine-tagged (Vibrio cholerae); test: BLI
[2] = biological target: DNA gyrase (GyrA+GyrB, full Gyrase);VcParE2 (Escherichia coli;Vibrio cholerae) (UniProt P0AES4+P0AES6+Q9KMJ0); test: EMSA
UniProt P0AES4, sequence (P0AES4 whole entry, one chain of several): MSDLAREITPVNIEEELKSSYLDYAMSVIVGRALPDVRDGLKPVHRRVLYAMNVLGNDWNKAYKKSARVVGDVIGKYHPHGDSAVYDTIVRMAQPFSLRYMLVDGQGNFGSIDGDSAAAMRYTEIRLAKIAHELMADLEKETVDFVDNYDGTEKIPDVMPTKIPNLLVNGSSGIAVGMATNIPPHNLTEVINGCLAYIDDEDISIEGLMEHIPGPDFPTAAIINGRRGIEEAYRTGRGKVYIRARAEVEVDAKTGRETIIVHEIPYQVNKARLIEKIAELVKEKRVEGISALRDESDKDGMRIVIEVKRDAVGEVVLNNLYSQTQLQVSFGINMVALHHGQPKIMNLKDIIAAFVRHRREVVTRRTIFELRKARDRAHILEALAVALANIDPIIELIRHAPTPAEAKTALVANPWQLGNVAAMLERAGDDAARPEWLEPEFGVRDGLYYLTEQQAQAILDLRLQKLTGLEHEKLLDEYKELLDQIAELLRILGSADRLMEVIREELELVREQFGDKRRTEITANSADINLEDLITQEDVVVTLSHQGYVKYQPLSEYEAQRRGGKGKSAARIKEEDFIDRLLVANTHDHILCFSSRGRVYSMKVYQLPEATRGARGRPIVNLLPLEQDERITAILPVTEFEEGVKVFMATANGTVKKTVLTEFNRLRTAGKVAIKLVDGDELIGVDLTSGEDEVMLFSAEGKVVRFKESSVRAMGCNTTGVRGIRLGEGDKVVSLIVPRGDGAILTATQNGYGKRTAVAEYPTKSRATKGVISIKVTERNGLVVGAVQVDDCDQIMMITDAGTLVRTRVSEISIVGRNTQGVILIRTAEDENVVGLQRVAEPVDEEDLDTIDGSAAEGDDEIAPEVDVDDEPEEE

VcParD2 peptide E41-S60 (N-terminal helix of the C-terminal domain)
Kd [1]: 778 nM

GCTGCTCATCATGGTTTGTGAGCAGTCAGTTTGCGGGAGGTGCGGGAAAATCTGGGGTTATGCTATTTGAGTACTGGAGAAAGAAAGTGAAAGGAAGATAAAACGGGATTCATACACCGTTAAATACCGGTTTAAAAATCCCGTGGCGCGTTTTAAAAAATCTGTGCGGCTGATTTTATGCCTGATTCTGTTTATTGCCTCAGAGCGGCGCTGACGCGTTTTCTGATGGCATCAAAAATTTCCTGTTCCCCGGTCTTATCCAGCCCCATATAAGGACGCGCAGGAA (double strand) [286-bp Mu strong gyrase site fragment]
binding [2]: binds

From doi:10.1101/2025.07.24.666505
